In publication PMC3538841 one finds stoichiometry N data, which are given here for one substance.

The assay addresses HA ectodomain of B/Florida/4/2006 (influenza B virus B/Florida/4/2006 (Yamagata lineage)). As to the kind of experiment: negative stain EM reconstruction.

One may read the stoichiometry N as the number of molecules, sites or subunits per partner or assembly.

For “HA ectodomain of B/Florida/4/2006 (domain or fragment)”, the stoichiometry N was 3.
